From paper PMC5323130 (Oncotarget, 2016)
Where a SMILES comes first, the peptide text is derived from it. Where no end group is shown, it is not given here.

Columns and labels:
hPD-1 = biological target: T1, hPD-1 (Homo sapiens, UniProt Q15116); experiment: SPR direct binding assay, hPD-1 immobilized on CM5 sensor chip; details: steady-state model, PBS-P buffer pH 7.4, 25°C, mean ± SD from three independent experiments
T1 construct: extracellular region of hPD-1 (amino acids 34–150); made in house; host or cells: E. coli BL21 (DE3)
Method: The purified active hPD-1 was diluted in 10 mM sodium acetate buffer (pH 4.5) to the final concentration of 50 μg/ml. The diluted hPD-1 was immobilized on a CM5 sensor chip by amino coupling reagent kit, and the immobilization level was 5000 response unit (RU). Binding experiments were performed in PBS-P buffer (8 mM Na2HPO4, 2 mM KH2PO4, 137 mM NaCl, 2.7 mM KCl, 0.005% surfactant P20, pH 7.4) at 25°C with a flow rate of 30 μl/min. […] RU values were collected and all the experimental data was globally analyzed by a steady-state model within Biacore T200 Evaluation software, version 2.0.

[1] = biological target: T2, human programmed death 1 (hPD-1), extracellular region (amino acids 34-150) (human, UniProt Q15116 34-150); experiment: SPR; Biacore T200; hPD-1 immobilised on a CM5 chip by amine coupling (5000 RU); peptides or hPD-L1 injected 90 s, dissociation 120 s; PBS-P buffer pH 7.4, 25°C, 30 μl/min; steady-state model; details: both partners purified
T2 construct: extracellular region of human PD-1, amino acids 34-150, cloned into pET28a between NcoI and NdeI sites; purification was by cation exchange and gel filtration; also called CD279

[2] = biological target: T2, human programmed death 1 (hPD-1), …; experiment: as above; details: both partners purified; remark: listed apart in the source
[3] = biological target: T2, human programmed death 1 (hPD-1), …; experiment: as above; details: both partners purified; remark: listed apart in the source

T1 sequence (Q15116 34-150): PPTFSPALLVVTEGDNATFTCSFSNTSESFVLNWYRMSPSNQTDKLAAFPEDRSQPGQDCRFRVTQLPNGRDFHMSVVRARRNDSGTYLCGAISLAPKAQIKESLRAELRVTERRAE
T2 sequence (Q15116 34-150): as above

With GNWDANSQRAQLYNQ [Peptide Y5A] the Kd (hPD-1) was 20.1 ± 0.98 µM.

`N[C@@H](Cc1c[nH]c2ccccc12)C(=O)N[C@@H](CC(=O)O)C(=O)N[C@@H](Cc1ccc(O)cc1)C(=O)N[C@@H](CC(=O)O)C(=O)O` [Ar3_1, WDYD] (H-WDYD-OH) showed a Kd (hPD-1) of 22.4 ± 0.34 µM.

B1: Ar5Y_4 (peptide)
peptide: GNWDYNSQRAQLYNQ
notes: de novo designed peptide with anchor residues Y56, R113, A121, D122 and Y123 of hPD-L1; source: synthetic peptide (Fmoc solid-phase synthesis)
B1 gave a Kd [1] of 1.38 µM.

B2: Ar5Y_4 mutant R9A (peptide)
peptide: GNWDYNSQAAQLYNQ
notes: numbers count on the peptide itself; source: synthetic peptide (Fmoc solid-phase synthesis)
Molecule B2 has a Kd [2] of 21.2 µM.

B3: Ar5Y_4 mutant Y13A (peptide)
peptide: GNWDYNSQRAQLANQ
notes: as for B2
B3 was tested, and the Kd [2] was 10.2 µM.

B4: Ar5Y_4 mutant Y5A (peptide)
peptide: GNWDANSQRAQLYNQ
notes: as for B2
B4 showed a Kd [2] of 20.2 µM.

B5: Ar5Y_4 mutant W3A (peptide)
peptide: GNADYNSQRAQLYNQ
notes: as for B2
B5 showed a Kd [2] of 8.08 µM.

B6: Ar5Y_4 mutant D4A (peptide)
peptide: GNWAYNSQRAQLYNQ
notes: as for B2
B6 gave a Kd [2] of 18.9 µM.

B7: Ar4_1 (peptide)
peptide: GIDYEERWK
notes: peptide designed with anchor residues R113, A121, D122 and Y123 of hPD-L1; source: synthetic peptide (Fmoc solid-phase synthesis)
For B7, the Kd [3] was 28.3 µM.

B8: Ar5Y_1 (peptide)
peptide: FNWDYSWKSERLKEAYDL
notes: as for B1
For B8, the Kd [1] was 3.39 µM.

B9: Ar5M_1 (peptide)
peptide: LDYGDKREGQMAE
notes: peptide designed with anchor residues R113, M115, A121, D122 and Y123 of hPD-L1; source: synthetic peptide (Fmoc solid-phase synthesis)
Work on B9 yielded a Kd [3] of 21.6 µM.

B10: Ar5Y_2 (peptide)
peptide: FNWDYSLEELREKAKYK
notes: as for B1
In the case of B10, the Kd [1] is reported as 3.14 µM.

B11: Ar5Y_3 (peptide)
peptide: TEKDYRHGNIRMKLAYDL
notes: as for B1
B11 showed a Kd [1] of 3.13 µM.

B12: Ar5M_2 (peptide)
peptide: LDYVNRRKMYQ
notes: as for B9
In the case of B12, the Kd [3] is reported as 3.32 µM.

B13: Ar4_2 (peptide)
peptide: LDYDGRLSQ
notes: as for B7
With B13 the Kd [3] was 83.9 µM.
